Laboratory results taken from US20060018902A1 (published 2006).

Experiments:
soluble EpoR (EposR) [1] = target: T1, soluble EpoR (EposR) (human, UniProt P19235 25-250); test: yeast display flow cytometry
T1 chain: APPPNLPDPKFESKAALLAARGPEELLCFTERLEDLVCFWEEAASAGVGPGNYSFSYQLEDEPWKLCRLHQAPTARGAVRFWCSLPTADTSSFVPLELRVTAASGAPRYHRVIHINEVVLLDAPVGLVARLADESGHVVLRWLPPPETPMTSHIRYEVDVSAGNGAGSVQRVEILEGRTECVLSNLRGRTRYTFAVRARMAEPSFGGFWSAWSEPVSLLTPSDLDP

[2] = target: T2, human erythropoietin receptor (EpoR) on human erythroleukemic cells (human, UniProt P19235 25-508); test: cell-based or functional assay
T2 sequence (looked up): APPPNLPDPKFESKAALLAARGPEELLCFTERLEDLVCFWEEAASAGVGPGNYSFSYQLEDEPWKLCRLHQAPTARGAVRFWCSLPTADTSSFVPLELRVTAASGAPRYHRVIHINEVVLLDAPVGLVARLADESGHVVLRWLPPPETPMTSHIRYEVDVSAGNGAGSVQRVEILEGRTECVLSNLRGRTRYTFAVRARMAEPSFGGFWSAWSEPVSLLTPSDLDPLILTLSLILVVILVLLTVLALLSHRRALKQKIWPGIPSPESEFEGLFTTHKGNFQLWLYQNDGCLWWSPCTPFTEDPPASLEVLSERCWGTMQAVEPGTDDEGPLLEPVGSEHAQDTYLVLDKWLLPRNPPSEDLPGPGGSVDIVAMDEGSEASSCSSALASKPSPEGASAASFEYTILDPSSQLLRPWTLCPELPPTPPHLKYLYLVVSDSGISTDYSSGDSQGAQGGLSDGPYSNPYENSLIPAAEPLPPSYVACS

soluble EpoR (EposR) [3] = target: T3, soluble EpoR (EposR) (human, UniProt P19235 25-250, limits assumed); test: SPR (BIAcore), IgG2/K antibody, EposR as test antigen
T3 construct: also called soluble recombinant human EpoR
T3 sequence (looked up): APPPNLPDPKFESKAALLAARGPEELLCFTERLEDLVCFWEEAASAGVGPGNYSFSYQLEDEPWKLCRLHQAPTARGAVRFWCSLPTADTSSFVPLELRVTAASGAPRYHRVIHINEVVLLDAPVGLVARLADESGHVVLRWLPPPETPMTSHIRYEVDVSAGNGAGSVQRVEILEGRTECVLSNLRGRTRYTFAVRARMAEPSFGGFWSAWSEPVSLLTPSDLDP
Experimental: (§1) BIAcore analyses were performed on a BIAcore 2000 utilizing the BIAcontrol software version 3.1.0 and on a BIAcore 3000 utilizing the BIAcontrol software version 4.0.1. (BIAcore, Uppsala, Sweden) using EposR as the test antigen.

soluble EpoR (EposR) [4] = target: T3, soluble EpoR (EposR); test: SPR (BIAcore), IgG2/K sub-variant of Ab12.6, EposR as test antigen
Experimental: as §1
Sub-variants also were subjected to BIAcore analyses as described above.

Row | Binder | Kd (soluble EpoR (EposR) [1]) [nM] | EC50 (cell proliferation) [2] [nM] | Emax (cell proliferation, absorbance) [2] | Kd (soluble EpoR (EposR) [3]) [nM] | koff (soluble EpoR (EposR) [3]) [s⁻¹] | kon (soluble EpoR (EposR) [3]) [M⁻¹ s⁻¹] | Kd (soluble EpoR (EposR) [4]) [nM] | koff (soluble EpoR (EposR) [4]) [s⁻¹] | kon (soluble EpoR (EposR) [4]) [M⁻¹ s⁻¹]
1 | Ab12 scFv construct with Gly/Ser linker (WT) in both the tether and scFv linker positions, displayed on yeast (scFv) scFv: GGGGSGGGGSGGGGSQVQLQESGPGLVKPSETLSLTCTVSGASISSYYWSWIRQPPGKGLEWIGYIYYSGSTNYNPSLKSRVTISVDTSKNQFSLKLRSVTAADTAVYYCARERLGIGDYWGQGTLVTVSSGGGGSGGGGSGGGGSDIQLTQSPSSLSASVGDRVTITCRASQGIRNDLGWYQQKPGKAPKRLIYAASSLQSGVPSRFSGSGSGTEFTLTISSLQPEDFATYYCLQHNTYPPTFGQGTKVEIK | 9 | – | – | – | – | – | – | – | –
2 | Ab12 IgG2/K (antibody, V domains shown, Human IgG2/kappa) VH: QVQLQESGPGLVKPSETLSLTCTVSGASISSYYWSWIRQPPGKGLEWIGYIYYSGSTNYNPSLKSRVTISVDTSKNQFSLKLRSVTAADTAVYYCARERLGIGDYWGQGTLVTVSS VL: DIQLTQSPSSLSASVGDRVTITCRASQGIRNDLGWYQQKPGKAPKRLIYAASSLQSGVPSRFSGSGSGTEFTLTISSLQPEDFATYYCLQHNTYPPTFGQGTKVEIK | – | 1.29 | 1.98 absorbance (OD 490 nm) | 11 | 0.0013 | 140000 | – | – | –
3 | Ab12.123 (antibody, IgG2, V domains shown) VH: QVQLQESGPGLVKPSETLSLTCTVSGASISSYYWSWIRQPPGKGLEWIGYIGYEGSTNYNPSLKSRVTISVDTSKNQFSLKLRSVTAADTAVYYCARERLGIGDYWGQGTLVTVSS VL: DIQLTQSPSSLSASVGDRVTITCRASQGIRNDLGWYQQKPGKAPKRLIYAASSLQSGVPSRFSGSGSGTEFTLTISSLQPEDFATYYCLQHNTYPPTFGQGTKVEIK | – | 0.91 | 2.7 absorbance (OD 490 nm) | – | – | – | 25 | 0.0033 | 130000
4 | Ab12.119 (antibody, IgG2, V domains shown) VH: QVQLQESGPGLVKPSETLSLTCTVSGASISSYYWSWIRQPPGKGLEWIGYIYGSGSTNYNPSLKSRVTISVDTSKNQFSLKLRSVTAADTAVYYCARERLGIGDYWGQGTLVTVSS VL: DIQLTQSPSSLSASVGDRVTITCRASQGIRNDLGWYQQKPGKAPKRLIYAASSLQSGVPSRFSGSGSGTEFTLTISSLQPEDFATYYCLQHNTYPPTFGQGTKVEIK | – | 1.34 | 2.53 absorbance (OD 490 nm) | – | – | – | 21 | 0.0044 | 210000
5 | Ab12.121 (antibody, IgG2, V domains shown) VH: QVQLQESGPGLVKPSETLSLTCTVSGASISSYYWSWIRQPPGKGLEWIGYIGGSGSTNYNPSLKSRVTISVDTSKNQFSLKLRSVTAADTAVYYCARERLGIGDYWGQGTLVTVSS VL: DIQLTQSPSSLSASVGDRVTITCRASQGIRNDLGWYQQKPGKAPKRLIYAASSLQSGVPSRFSGSGSGTEFTLTISSLQPEDFATYYCLQHNTYPPTFGQGTKVEIK | – | 0.465 | 2.3 absorbance (OD 490 nm) | – | – | – | 31 | 0.0063 | 210000
6 | Ab12.118 (antibody, IgG2, V domains shown) VH: QVQLQESGPGLVKPSETLSLTCTVSGASISSYYWSWIRQPPGKGLEWIGYIGYSGSTNYNPSLKSRVTISVDTSKNQFSLKLRSVTAADTAVYYCARERLGIGDYWGQGTLVTVSS VL: DIQLTQSPSSLSASVGDRVTITCRASQGIRNDLGWYQQKPGKAPKRLIYAASSLQSGVPSRFSGSGSGTEFTLTISSLQPEDFATYYCLQHNTYPPTFGQGTKVEIK | – | 1.13 | 2.65 absorbance (OD 490 nm) | – | – | – | 22 | 0.0055 | 250000
7 | Ab12.56 (antibody, V domains shown, CDRH2 Y Y S is changed to A G T against Ab12) VH: QVQLQESGPGLVKPSETLSLTCTVSGASISSYYWSWIRQPPGKGLEWIGYIAGTGSTNYNPSLKSRVTISVDTSKNQFSLKLRSVTAADTAVYYCARERLGIGDYWGQGTLVTVSS VL: DIQLTQSPSSLSASVGDRVTITCRASQGIRNDLGWYQQKPGKAPKRLIYAASSLQSGVPSRFSGSGSGTEFTLTISSLQPEDFATYYCLQHNTYPPTFGQGTKVEIK | – | 1.17 | 2.51 absorbance (OD 490 nm) | 20 | 0.0019 | 94000 | – | – | –
8 | Ab12.122 (antibody, IgG2, V domains shown) VH: QVQLQESGPGLVKPSETLSLTCTVSGASISSYYWSWIRQPPGKGLEWIGYIYGEGSTNYNPSLKSRVTISVDTSKNQFSLKLRSVTAADTAVYYCARERLGIGDYWGQGTLVTVSS VL: DIQLTQSPSSLSASVGDRVTITCRASQGIRNDLGWYQQKPGKAPKRLIYAASSLQSGVPSRFSGSGSGTEFTLTISSLQPEDFATYYCLQHNTYPPTFGQGTKVEIK | – | 0.42 | 2.4 absorbance (OD 490 nm) | – | – | – | 23 | 0.0049 | 220000
9 | Ab12.6 (antibody, V domains shown, CDRH2 Y Y S is changed to G G E against Ab12; also called H2-1-3 R2 #6) VH: QVQLQESGPGLVKPSETLSLTCTVSGASISSYYWSWIRQPPGKGLEWIGYIGGEGSTNYNPSLKSRVTISVDTSKNQFSLKLRSVTAADTAVYYCARERLGIGDYWGQGTLVTVSS VL: DIQLTQSPSSLSASVGDRVTITCRASQGIRNDLGWYQQKPGKAPKRLIYAASSLQSGVPSRFSGSGSGTEFTLTISSLQPEDFATYYCLQHNTYPPTFGQGTKVEIK | – | 0.58 | 2.81 absorbance (OD 490 nm) | 32 | 0.0048 | 150000 | – | – | –
10 | Ab12.120 (antibody, IgG2, V domains shown) VH: QVQLQESGPGLVKPSETLSLTCTVSGASISSYYWSWIRQPPGKGLEWIGYIYYEGSTNYNPSLKSRVTISVDTSKNQFSLKLRSVTAADTAVYYCARERLGIGDYWGQGTLVTVSS VL: DIQLTQSPSSLSASVGDRVTITCRASQGIRNDLGWYQQKPGKAPKRLIYAASSLQSGVPSRFSGSGSGTEFTLTISSLQPEDFATYYCLQHNTYPPTFGQGTKVEIK | – | 0.34 | 2 absorbance (OD 490 nm) | – | – | – | 7 | 0.002 | 270000
11 | Ab12.70 (antibody, V domains shown, also called H2-4-1 R2 #8,9) VH: QVQLQESGPGLVKPSETLSLTCTVSGASISSYYWSWIRQPPGKGLEWIGYIYSPSSTNYNPSLKSRVTISVDTSKNQFSLKLRSVTAADTAVYYCARERLGIGDYWGQGTLVTVSS VL: DIQLTQSPSSLSASVGDRVTITCRASQGIRNDLGWYQQKPGKAPKRLIYAASSLQSGVPSRFSGSGSGTEFTLTISSLQPEDFATYYCLQHNTYPPTFGQGTKVEIK | – | – | – | 6 | 0.00099 | 160000 | – | – | –
12 | Ab12 scFv construct with linker 41 in the tether position and the Gly/Ser linker (WT) in the scFv linker position, displayed on yeast (scFv) scFv: GENKVEYAPALMALSQVQLQESGPGLVKPSETLSLTCTVSGASISSYYWSWIRQPPGKGLEWIGYIYYSGSTNYNPSLKSRVTISVDTSKNQFSLKLRSVTAADTAVYYCARERLGIGDYWGQGTLVTVSSGGGGSGGGGSGGGGSDIQLTQSPSSLSASVGDRVTITCRASQGIRNDLGWYQQKPGKAPKRLIYAASSLQSGVPSRFSGSGSGTEFTLTISSLQPEDFATYYCLQHNTYPPTFGQGTKVEIK | 5 | – | – | – | – | – | – | – | –
13 | Ab12 scFv construct with linker 41 in the tether position and linker 34 in the scFv linker position, displayed on yeast (scFv) scFv: GENKVEYAPALMALSQVQLQESGPGLVKPSETLSLTCTVSGASISSYYWSWIRQPPGKGLEWIGYIYYSGSTNYNPSLKSRVTISVDTSKNQFSLKLRSVTAADTAVYYCARERLGIGDYWGQGTLVTVSSGHEAAAVMQVQYPASDIQLTQSPSSLSASVGDRVTITCRASQGIRNDLGWYQQKPGKAPKRLIYAASSLQSGVPSRFSGSGSGTEFTLTISSLQPEDFATYYCLQHNTYPPTFGQGTKVEIK | 8.5 | – | – | – | – | – | – | – | –
14 | Ab12 41/40 scFv (linker 41 as tether, linker 40 as scFv linker), displayed on yeast (scFv) scFv: GENKVEYAPALMALSQVQLQESGPGLVKPSETLSLTCTVSGASISSYYWSWIRQPPGKGLEWIGYIYYSGSTNYNPSLKSRVTISVDTSKNQFSLKLRSVTAADTAVYYCARERLGIGDYWGQGTLVTVSSGPAKELTPLKEAKVSDIQLTQSPSSLSASVGDRVTITCRASQGIRNDLGWYQQKPGKAPKRLIYAASSLQSGVPSRFSGSGSGTEFTLTISSLQPEDFATYYCLQHNTYPPTFGQGTKVEIK | 4 | – | – | – | – | – | – | – | –
